Results taken from PMC7948467, “Discovery of an ultraspecific triuret hydrolase (TrtA) establishes the triuret biodegradation pathway” (The Journal of Biological Chemistry, 2020).

Substrate: NC(=O)NC(=O)NC(N)=O
Experiment: ammonia release, Berthelot assay
Type: biochemical, Herbaspirillum sp. BH-1
Conditions: phosphate buffer
[1] = pH 6.5 (optimum), 25 °C, His-tag kept

Protein | Km [1] | kcat [1] | kcat/Km [1] | Km (pH 8, 25 °C) | kcat (pH 8, 25 °C) | kcat/Km (pH 8, 25 °C)
TrtA (Herbaspirillum sp. BH-1) (protein, N-terminal 6xHis tag and thrombin site kept, pET28a, E. coli BL21(DE3), codon-optimized; subunit 24 kDa, homodimer) MIRIDATPYPYQFHPRSTALVVIDMQRDFIEEGGFGSALGNDVRPLAAIVPTVAALLQLAREAGMLVVHTRESHLPDLSDCPRSKRLRGNPTLGIGDVGPMGRILVQGEPGNQILPQLAPVEGELVIDKPGKGAFYATDLHAQLQERRITHLLVAGVTTEVCVQTSMREANDRGYECLVIEDACASYFPDFHRITLEMLTAQGGIVGWRTPLAQLQAGVAAYTGENP | 21 ± 3 µM | 11 ± 1 s⁻¹ | 530000 ± 100000 M⁻¹ s⁻¹ | – | – | –
TrtA +Cleaved His-tag (Herbaspirillum sp. BH-1) (protein, N-terminal 6xHis tag cut by thrombin, E. coli BL21(DE3); homodimer ~48 kDa; crystal rows placed here, but may be the C-terminal deletion construct) MIRIDATPYPYQFHPRSTALVVIDMQRDFIEEGGFGSALGNDVRPLAAIVPTVAALLQLAREAGMLVVHTRESHLPDLSDCPRSKRLRGNPTLGIGDVGPMGRILVQGEPGNQILPQLAPVEGELVIDKPGKGAFYATDLHAQLQERRITHLLVAGVTTEVCVQTSMREANDRGYECLVIEDACASYFPDFHRITLEMLTAQGGIVGWRTPLAQLQAGVAAYTGENP | – | – | – | 15 ± 3 µM | 8.8 ± 0.4 s⁻¹ | 610000 ± 160000 M⁻¹ s⁻¹
